The assay addresses Huntingtin Exon 1 with 44 glutamines (HttEx1Q44) amyloid fibrils. Nature of the assay: MST.

Experimental findings from article doi:10.64898/2025.12.19.695423 are described below.

“E3 ubiquitin ligase CHIP (from UniProt Q9UNE7 1-303) (enzyme)”: the K app with FP20 amounted to 170 nM and the dissociation constant Kd (commonly a measure of binding affinity in units of concentration) is 460 nM.
